Assay results: patent publication US20140004122A1, “METHODS FOR TREATING OR PREVENTING CHOLESTEROL RELATED DISORDERS” (AMGEN INC., priority 2011, published 2014)

Assays:
[1] = target: D374Y PCSK9 binding to LDLR (Homo sapiens, UniProt Q8NBP7, D374Y); assay: Large scale receptor ligand blocking screen and functional classification of ABPs; conditions: functional assays of the screening
Description: To screen for the antibodies that block PCSK9 binding to LDLR an assay was developed using the D374Y PCSK9 mutant. […] The following protocol was employed in the receptor ligand blocking screen: Costar 3702 medium binding 384 well plates (Corning Life Sciences) were employed in the screen. The plates were coated with goat anti-LDLR (R&D Cat #AF2148) at 2 μg/ml in 1×PBS/0.05% Azide at a volume of 40 μl/well. The plates were incubated at 4° C. overnight. The plates were then washed using a Titertek plate washer (Titertek, Huntsville, Ala.). A 3-cycle wash was performed. The plates were blocked with 90 μl of 1×PBS/1% milk and incubated approximately 30 minutes at room temperature. The plates were then washed using the Titertek plate washer. A 3-cycle wash was performed. The capture sample was LDLR (R&D, Cat #2148LD/CF), and was added at 0.4 μg/ml in 1×PBS/1% milk/10 mM Ca^2+ at a volume of 40 μl/well. The plates were then incubated for 1 hour and 10 minutes at room temperature. Contemporaneously, 20 ng/ml of biotinylated human D374Y PCSK9 was incubated with 15 micro liters of hybridoma exhaust supernatant in Nunc polypropylene plates and the exhaust supernatant concentration was diluted 1:5. The plates were then pre-incubated for about 1 hour and 30 minutes at room temperature. Next, the plates were washed using the Titertek plate washer operated using a 3-cycle wash. 50 μl/well of the pre-incubated mixture was transferred onto the LDLR coated ELISA plates and incubated for 1 hour at room temperature. To detect LDLR-bound b-PCSK9, 40 μl/well streptavidin HRP at 500 ng/ml in assay diluent was added to the plates. The plates were incubated for 1 hour at room temperature. The plates were again washed using a Titertek plate washer. A 3-cycle wash was performed. Finally, 40 μl/well of One-step TMB (Neogen, Lexington, Ky.) was added to the plate and was quenched with 40 μl/well of 1N hydrochloric acid after 30 minutes at room temperature. OD's were read immediately at 450 nm using a Titertek plate reader.
The receptor ligand assay was then repeated using the mutant enzyme on the 384 member subset of neutralizers identified in the first large scale receptor ligand inhibition assay. The same protocol was employed in the screen of the 384 member blocker subset assay as was done in the large scale receptor ligand blocking screen.
Limiting dilution was used to isolate a manageable number of clones from each line. […] The isolated clones were each expanded in 50-100 ml of hybridoma media and allowed to grow to exhaustion, (i.e., less than about 10% cell viability). The concentration and potency of the antibodies to PCSK9 in the supernatants of those cultures were determined by ELISA and by in vitro functional testing, as described herein.

[2] = target: D374Y human PCSK9 (HepG2 cells) (Homo sapiens, UniProt Q8NBP7, D374Y); assay: Cell LDL uptake assay (Example 10); assay type: cell-based; conditions: 2 μg/ml D374Y human PCSK9, HepG2 cells
Description: Human HepG2 cells were seeded in black, clear bottom 96-well plates (Costar) at a concentration of 5×10^5 cells per well in DMEM medium (Mediatech, Inc) supplemented with 10% FBS and incubated at 37° C. (5% CO2) overnight. To form the PCSK9 and antibody complex, 2 μg/ml of D374Y human PCSK9 was incubated with various concentrations of antibody diluted in uptake buffer (DMEM with 1% FBS) or uptake buffer alone (control) for 1 hour at room temperature. After washing the cells with PBS, the D374Y PCSK9/antibody mixture was transferred to the cells, followed by LDL-BODIPY (Invitrogen) diluted in uptake buffer at a final concentration of 6 μg/ml. After incubation for 3 hours at 37° C. (5% CO2), cells were washed thoroughly with PBS and the cell fluorescence signal was detected by Safire™ (TECAN) at 480-520 nm (excitation) and 520-600 nm (emission).

[3] = target: D374Y PCSK9/LDLR binding (Homo sapiens, UniProt Q8NBP7, D374Y); assay: Blocking D374Y PCSK9/LDLR binding (Example 9); conditions: 20 ng/ml biotinylated D374Y PCSK9
Description: Clear 384 well plates (Costar) were coated with 2 micrograms/ml of goat anti-LDL receptor antibody (R&D Systems) diluted in buffer A (100 mM sodium cacodylate, pH 7.4). Plates were washed thoroughly with buffer A and then blocked for 2 hours with buffer B (1% milk in buffer A). After washing, plates were incubated for 1.5 hours with 0.4 micrograms/ml of LDL receptor (R&D Systems) diluted in buffer C (buffer B supplemented with 10 mM CaCl2). […] The LDL receptor containing plates were washed and the biotinylated D374Y PCSK9/antibody mixture was transferred to them and incubated for 1 hour at room temperature. Binding of the biotinylated D374Y to the LDL receptor was detected by incubation with streptavidin-HRP (Biosource) at 500 ng/ml in buffer C followed by TMB substrate (KPL). The signal was quenched with 1N HCl and the absorbance read at 450 nm.

[4] = tested on: wild type (WT) mice (C57BL/6); assay: Serum cholesterol and HDL in 13 day study; assay type: in vivo, mouse; conditions: 10 mg/kg, repeated 13 day study (FIG. 10C)
From the text: Male WT mice (C57BL/6 strain, aged 9-10 weeks, 17-27 g) obtained from Jackson Laboratory (Bar Harbor, Me.) were fed a normal chow (Harland-Teklad, Diet 2918) through out the duration of the experiment. […] Naïve mice were also set aside as naïve control group.
Animals were sacrificed and livers were extracted and prepared as in Example 11.
The HDL levels for the animals in Example 13 were also examined.

neutralizing ability (blocking PCSK9/LDLR) [1]	Molecule	further results
non-neutralizing	13H1: anti-PCSK9 antibody; light/heavy variable region SEQ ID NO 28/91 (antibody, listed as Homo sapiens, V domains shown) VH: QVQLQQSGPGLVKPSQTLSLTCAISGDSVSSNSAAWNWIRQSPSRGLEWLGRTYYRSKWYKNYSVSVKSRITINPDTSKNQFSLQLNSVTPGDTAVYYCARGGPTAAFDYWGQGTLVTVSS VL: LSALTQPASVSGSPGQSITISCTGTSSDVGNYNLVSWYQQYSGKAPKLMIYEVSKRPSGVSNRFSGSKSGNTASLTISGLQAEDEADYYCCSYAGSSTLVFGGGTKLTVL	
weak neutralizers	3B6: anti-PCSK9 antibody; light/heavy variable region SEQ ID NO 46/60 (antibody, listed as Homo sapiens, V domains shown) VH: QVQLVQSGAEVKKPGASVKVSCKASGYTFTSYGISWVRQAPGQGLEWMGWISTYNGNTNYAQKVQGRVTMTTDTSTSTAYMELRSLRSDDTAVYYCARGYTRDYWGQGTLVTVSS VL: QPVLTQPLFASASLGASVTLTCTLSSGYSSYEVDWYQQRPGKGPRFVMRVDTGGIVGSKGEGIPDRFSVLGSGLNRYLTIKNIQEEDESDYHCGADHGSGTNFVVVFGGGTKLTVL	
neutralizing	25A7: anti-PCSK9 antibody; light/heavy variable region SEQ ID NO 15/58; 25A7.3 referred to as 25A7 (antibody, listed as Homo sapiens, V domains shown) VH: QVQLVQSGAEVKKPGASVKVSCKASGYTFPSYGISWVRQAPGQGLEWMGWISAYNGNTNYAEKLQGRVTMTTDTSTSTAYMEVRSLRSDDTAVFYCARGYVMDVWGQGTTVTVSS VL: QSALTQPASVSGSPGQSITISCTGTSSDVGRYNSVSWYQHHPGKAPKVMIYEVSNRPSGVSTRFSGSKSGNTASLTISGLQAEDEADYYCSSYTSSSVVFGGGTKLTVL	
	21B12 IgG2: human 21B12 IgG2 antibody produced from transfected cells (antibody) heavy: QVQLVQSGAEVKKPGASVKVSCKASGYTLTSYGISWVRQAPGQGLEWMGWVSFYNGNTNYAQKLQGRGTMTTDPSTSTAYMELRSLRSDDTAVYYCARGYGMDVWGQGTTVTVSSASTKGPSVFPLAPCSRSTSESTAALGCLVKDYFPEPVTVSWNSGALTSGVHTFPAVLQSSGLYSLSSVVTVPSSNFGTQTYTCNVDHKPSNTKVDKTVERKCCVECPPCPAPPVAGPSVFLFPPKPKDTLMISRTPEVTCVVVDVSHEDPEVQFNWYVDGVEVHNAKTKPREEQFNSTFRVVSVLTVVHQDWLNGKEYKCKVSNKGLPAPIEKTISKTKGQPREPQVYTLPPSREEMTKNQVSLTCLVKGFYPSDIAVEWESNGQPENNYKTTPPMLDSDGSFFLYSKLTVDKSRWQQGNVFSCSVMHEALHNHYTQKSLSLSPGK light: QSALTQPASVSGSPGQSITISCTGTSSDVGGYNSVSWYQQHPGKAPKLMIYEVSNRPSGVSNRFSGSKSGNTASLTISGLQAEDEADYYCNSYTSTSMVFGGGTKLTVLQPKAAPSVTLFPPSSEELQANKATLVCLISDFYPGAVTVAWKADSSPVKAGVETTTPSKQSNNKYAASSYLSLTPEQWKSHRSYSCQVTHEGSTVEKTVAPTECS	IC50 [2]: 13.3 nM; IC50 [3]: 0.17 nM
non-neutralizing	13B5: anti-PCSK9 antibody; light/heavy variable region SEQ ID NO 42/69 (antibody, listed as Homo sapiens, V domains shown) VH: EVQLLESGGGLVQPGGSLRLSCAASGFTFSSYAMSWVRQAPGKGLEWVSTISGSGGRTYYADSVKGRFTISRDNSKNTLYLQMNSLRAEDTAVYYCAKEVGSPFDYWGQGTLVTVSS VL: QSVLTQPPSVSAAPGQKVTISCSGSNSNIGNNYVSWYQQLPGTAPKLLIYDNNKRPSGIPDRFSGSNSGTSATLGITGLQTGDEADYYCGTWDSSLSAVVFGGGTKLTVL	
	16F12: anti-PCSK9 antibody; light/heavy variable region SEQ ID NO 35/79 (antibody, listed as Homo sapiens, V domains shown) VH: QVHLVESGGGVVQPGRSLRLSCAASGFTFNSFGMHWVRQAPGKGLEWVALIWSDGSDEYYADSVKGRFTISRDNSKNTLYLQMNSLRAEDTAVYYCARAIAALYYYYGMDVWGQGTTVTVSS VL: QSVLTQPPSVSAAPGQKVTISCSGSSSNIGNNFVSWYQQLPGTAPKLLIYDYNKRPSGIPDRFSGSKSGTSATLGITGLQTGDEADYYCGTWDSSLSAYVFGTGTRVTVL	total serum cholesterol after a single dose [4]: significant and substantial decreases in total serum cholesterol
non-neutralizing	27B2: anti-PCSK9 antibody; light/heavy variable region SEQ ID NO 13/87 (antibody, listed as Homo sapiens, V domains shown) VH: QVQLQESGPGLVKPSQTLSLTCTVSGGSISSGGYYWSWIRQHPGKGLEWIGYIYNSGSTYYNPSLKSRVTISVDTSKNQFSLKLSSVTAADTAVYYCAREDTAMVPYFDYWGQGTLVTVSS VL: QSVLTQPPSVSGAPGQRVTISCTGSSSNIGAHYDVHWYQQVPGTAPKLLIYGNTYRPSGVPDRFSGSKSGTSASLAITGLQAEDEADYYCQSYDNSLSGVVFGGGTKLTVL	
